Tests used:
human SIAH1-SBD (91–282) [1] = target: T1, human SIAH1-SBD (91–282) (human, UniProt Q8IUQ4-1 91-282); assay: pull-down
T1 sequence (looked up): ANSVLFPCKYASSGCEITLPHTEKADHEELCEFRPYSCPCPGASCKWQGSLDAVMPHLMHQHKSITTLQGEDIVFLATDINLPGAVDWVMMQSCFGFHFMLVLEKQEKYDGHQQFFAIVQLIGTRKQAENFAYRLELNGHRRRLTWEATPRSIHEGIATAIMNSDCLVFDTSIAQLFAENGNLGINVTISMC

human SIAH1-SBD (91–282) [2] = target: T1, human SIAH1-SBD (91–282); assay: ITC

B1: GST-tagged AXIN1 (353–436) (domain or fragment, human, UniProt O15169-1 353-436, looked up)
chain: RREMQESVQVNGRVPLPHIPRTYRVPKEVRVEPQKFAEELIHRLEAVQRTREAEEKLEERLKRVRMEEEGEDGDPSSGPPGPCH
binding result (human SIAH1-SBD (91–282) [1]): binds

B2: 20-residue human AXIN1 peptide (residues 375–394) (peptide, UniProt O15169-1 375-394, looked up)
peptide: YRVPKEVRVEPQKFAEELIH
Kd (human SIAH1-SBD (91–282) [2]): 5.6 µM

Source: PMC5458757 (Genes & Development, 2017)
